Measurements published in patent US20100310509A1 (published 2010).

Target: T1, soluble human OSMR (Oncostatin M receptor) (human, UniProt Q99650 28-740)
T1 construct: extracellular domain; Bought; also called soluble OSMR
T1 sequence (looked up): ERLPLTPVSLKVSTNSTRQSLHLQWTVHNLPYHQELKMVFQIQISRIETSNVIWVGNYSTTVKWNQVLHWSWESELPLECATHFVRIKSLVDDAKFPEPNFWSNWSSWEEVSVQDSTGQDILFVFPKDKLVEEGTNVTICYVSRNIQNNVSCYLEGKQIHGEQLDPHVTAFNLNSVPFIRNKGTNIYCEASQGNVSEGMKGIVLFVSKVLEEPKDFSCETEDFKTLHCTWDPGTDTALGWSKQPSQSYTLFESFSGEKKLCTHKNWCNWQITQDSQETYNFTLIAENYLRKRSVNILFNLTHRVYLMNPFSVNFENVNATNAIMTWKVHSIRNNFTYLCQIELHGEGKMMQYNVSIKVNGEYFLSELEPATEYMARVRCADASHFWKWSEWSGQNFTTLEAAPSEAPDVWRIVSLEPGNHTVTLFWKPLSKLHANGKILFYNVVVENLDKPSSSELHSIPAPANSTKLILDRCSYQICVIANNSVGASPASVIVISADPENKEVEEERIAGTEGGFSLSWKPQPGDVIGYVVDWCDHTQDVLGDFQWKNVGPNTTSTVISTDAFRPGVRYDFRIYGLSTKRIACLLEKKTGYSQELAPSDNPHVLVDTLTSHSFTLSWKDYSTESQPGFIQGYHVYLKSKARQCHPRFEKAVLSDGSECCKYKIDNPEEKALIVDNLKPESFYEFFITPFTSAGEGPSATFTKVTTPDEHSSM
Experiment: SPR (SensiQ), OSM-M1 immobilised, soluble OSMR injected (150nM, 100nM, 50nM, 25nM, 10nM, 5nM)
Description: Surface Plasmon Resonance (SPR): Kinetic parameters of the interactions between receptor domains and the cytokines LIF, OSM-WT, OSM-M1 or OSM-M2 were analyzed by SPR using the SENSIQ® system (ICX Technologies, Oklahoma City, Okla.) as described by the manufacturer protocol. Briefly, a carboxyl sensor with two channels was installed in SENSIQ® and allowed to thermally equilibrate for about 15 minutes. The channels were initially cleaned with a 3 minute injection of 0.1 M HCl. An activation solution of 2 mM 1-Ethyl-3-[3-dimethylaminopropyl]carbodiimide hydrochloride (EDC) and 0.5 mM N-hydroxysulfo succinimide (NHS) was prepared in deionized water immediately before injection. Activation solution was injected over both channels for approximately 3 minutes followed by a 10 minute injection of 50 μg/mL cytokine (LIF, OSM-WT, OSM-M1 or OSM-M2) in 10 mM acetate buffer, pH 5.0, over channel 1. […] Unreacted NHS esters were capped with a 3 minute injection of 1 M ethanolamine, pH 8.0, over both channels. […] A concentration series of soluble LIFR (# 249-LR-050/CF, R&D Systems, Minneapolis, Minn.), soluble OSMR (# 4389-OR-50, R&D Systems, Minneapolis, Minn.) or soluble gp130 (# 228-GP-050/CF, R&D Systems, Minneapolis, Minn.) in running buffer (10 mM HEPES pH 7.4, 150 mM NaCl, 3.4 mM EDTA, 0.005% Tween-20) were injected over both channels at a flow rate of 25 μl/min. […]

binding result: no binding (tested: 150 nM)
B1: OSM-M1 (OSM with BC loop truncated from 12 to 7 amino acids) (ligand)
chain: AAIGSCSKEYRVLLGQLQKQTDLMQDTSRLLDPYIRIQGLDVPKLREHCRERPGAFPSEETLRGLGRRGFLQTLNATLGCVLHRLADLEQRLGAPSGLNIEDLEKLQMARPNILGLRNNIYCMAQLLDNSDTAEPTKAGAGASQPPTPTPASDAFQRKLEGCRFLHGYHRFMHSVGRVFSKWGESPN
notes: Made from the 'AGA' modified OSM template; lacks the thrombin site; not shown: N-terminal FLAG tag left after thrombin removal of GST
